Molecular target: T1, CD47 (UniProt Q08722 19-323, limits assumed)
T1 construct: whole, on cells; L540cy and SW780 are the cell lines named
Experiment: saturation binding, flow cytometry on CD47-expressing L540cy cells

B1: hB6H12.3 (unmasked parent) (antibody, V domains shown)
VH: EVQLLESGGGLVQPGGSLRLSCAASGFTFSGYGMSWVRQAPGKRLEWVATITSGGTYTYYPDSVKGRFTISRDNSKNTLYLQMNSLRAEDTAIYFCARSLAGNAMDYWGQGTLVTVSS
VL: EIVMTQSPDFQSVTPKEKVTLTCRASQTISDYLHWYQQKPDQSPKLLIKFASQSISGVPSRFSGSGSGSDFTLTINSLEAEDAATYYCQNGHGFPRTFGQGTKLEIKR
EC50: 21 nM

From US20240352080A1 (Seagen, published 2024)
